# Earlier results in patent US20050220810A1, “Anti-aging preparation” (Shiseido Company, Ltd., priority 2002, published 2005).
# Test system: vascular endothelial cell HMVEC
# Conditions: general statement on positive controls of TSP-1 induction; no test described
molecule,measurement,value
"TPA: tissue plasminogen activator, a positive control of the TSP-1 inducing substance (protein, UniProt P00750 36-562, looked up) Tissue-type plasminogen …: SYQVICRDEKTQMIYQQHQSWLRPVLRSNRVEYCWCNSGRAQCHSVPVKSCSEPRCFNGGTCQQALYFSDFVCQCPEGFAGKCCEIDTRATCYEDQGISYRGTWSTAESGAECTNWNSSALAQKPYSGRRPDAIRLGLGNHNYCRNPDRDSKPWCYVFKAGKYSSEFCSTPACSEGNSDCYFGNGSAYRGTHSLTESGASCLPWNSMILIGKVYTAQNPSAQALGLGKHNYCRNPDGDAKPWCHVLKNRRLTWEYCDVPSCSTCGLRQYSQPQFRIKGGLFADIASHPWQAAIFAKHRRSPGERFLCGGILISSCWILSAAHCFQERFPPHHLTVILGRTYRVVPGEEEQKFEVEKYIVHKEFDDDTYDNDIALLQLKSDSSRCAQESSVVRTVCLPPADLQLPDWTECELSGYGKHEALSPFYSERLKEAHVRLYPSSRCTSQHLLNRTVTDNMLCAGDTRSGGPQANLHDACQGDSGGPLVCLNDGRMTLVGIISWGLGCGQKDVPGVYTKVTNYLDWIRDNMRP",induction of cell death in vascular endothelial cells,does not induce cell death
